Test results published in PMC4753479, “A CAPS-based binding assay provides semi-quantitative validation of protein-DNA interactions”.

T1: rOsVAL2-B3 (rice, UniProt Q6Z3U3 144-517)
T1 sequence: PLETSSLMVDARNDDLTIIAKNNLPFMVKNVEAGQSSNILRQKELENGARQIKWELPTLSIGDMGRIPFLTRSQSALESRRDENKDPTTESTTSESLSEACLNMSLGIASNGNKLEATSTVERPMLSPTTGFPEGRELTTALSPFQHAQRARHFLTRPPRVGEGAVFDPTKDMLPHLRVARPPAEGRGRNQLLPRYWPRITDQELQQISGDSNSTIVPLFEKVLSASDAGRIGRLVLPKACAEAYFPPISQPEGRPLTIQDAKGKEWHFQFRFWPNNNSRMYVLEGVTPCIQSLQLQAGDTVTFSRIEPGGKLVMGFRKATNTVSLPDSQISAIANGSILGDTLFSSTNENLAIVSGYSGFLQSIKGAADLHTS

T2: rOsGD1-B3 (rice, UniProt Q0D5G4 342-640)
T2 sequence: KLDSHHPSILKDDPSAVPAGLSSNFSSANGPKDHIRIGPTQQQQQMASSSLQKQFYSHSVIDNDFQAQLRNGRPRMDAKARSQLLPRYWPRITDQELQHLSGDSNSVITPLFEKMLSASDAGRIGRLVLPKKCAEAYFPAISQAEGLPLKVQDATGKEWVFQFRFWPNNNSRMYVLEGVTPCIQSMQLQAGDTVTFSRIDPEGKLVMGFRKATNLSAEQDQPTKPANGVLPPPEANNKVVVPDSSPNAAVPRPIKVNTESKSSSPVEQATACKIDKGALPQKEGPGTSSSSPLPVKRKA

B1: WT RY pull-down probe (dsDNA)
DNA 1: TAATTGCATGCATATATGCACGC
DNA 2: GCGTGCATATATGCATGCAATTA

How the values were obtained:
[1] = biological target: T1, rOsVAL2-B3; assay: restriction protection (CBA); conditions: NsiI, same inhibitory effect as 5 ug rOsGD1-B3, 150 ng DNA in 15 ul, CBA: restriction enzyme buffer, 1-7 ug protein, 30 min at 37 C then 1 h digestion at 37 C, pull-down: 1 ug biotinylated DNA, 12 h …
[2] = biological target: T2, rOsGD1-B3; assay: restriction protection (CBA); conditions: 150 ng DNA in 15 ul, CBA: restriction enzyme buffer, 1-7 ug protein, 30 min at 37 C then 1 h digestion at 37 C, pull-down: 1 ug biotinylated DNA, 12 h …
[3] = biological target: T2, rOsGD1-B3; assay: pull-down; weaker than rOsVAL2-B3; CBA: restriction enzyme buffer, 150 ng DNA, 1-7 ug protein, 15 ul, 30 min at 37 C then 1 h digestion at 37 C; pull-down: 1 ug biotinylated DNA, 12 h, streptavidin-agarose, wash TBS (20 mM Tris, 150 mM NaCl), competitors 5x/10x/20x; conditions: protein: recombinant; tags: 6xHis (pGoldI); label: 5' biotin, both strands; blunt
[4] = biological target: T1, rOsVAL2-B3; assay: pull-down; stronger than rOsGD1-B3; CBA: restriction enzyme buffer, 150 ng DNA, 1-7 ug protein, 15 ul, 30 min at 37 C then 1 h digestion at 37 C; pull-down: 1 ug biotinylated DNA, 12 h, streptavidin-agarose, wash TBS (20 mM Tris, 150 mM NaCl), competitors 5x/10x/20x; conditions: protein: recombinant; tags: 6xHis (pGoldI); label: 5' biotin, both strands; blunt

| Molecule | binding signal [1] [µg protein] | protein amount for inhibition of NsiI digestion [2] [µg protein] | binding result [3] | binding result [4] |
| --- | --- | --- | --- | --- |
| WT RY-DNA 420 bp | 3 | 5 |  |  |
| B1 |  |  | binds | binds |
